# According to IntAct's records for PubMed 24105263:
# B1: Vesicle-associated membrane protein-associated protein A (Homo sapiens), Q9P0L0 (parent)
# chain: MASASGAMAKHEQILVLDPPTDLKFKGPFTDVVTTNLKLRNPSDRKVCFKVKTTAPRRYCVRPNSGIIDPGSTVTVSVMLQPFDYDPNEKSKHKFMVQTIFAPPNTSDMEAVWKEAKPDELMDSKLRCVFEMPNENDKLNDMEPSKAVPLNASKQDGPMPKPHSVSLNDTETRKLMEECKRLQGEMMKLSEENRHLRDEGLRLRKVAHSDKPGSTSTASFRDNVTSPLPSLLVVIAAIFIGFFLGKFIL
# partner: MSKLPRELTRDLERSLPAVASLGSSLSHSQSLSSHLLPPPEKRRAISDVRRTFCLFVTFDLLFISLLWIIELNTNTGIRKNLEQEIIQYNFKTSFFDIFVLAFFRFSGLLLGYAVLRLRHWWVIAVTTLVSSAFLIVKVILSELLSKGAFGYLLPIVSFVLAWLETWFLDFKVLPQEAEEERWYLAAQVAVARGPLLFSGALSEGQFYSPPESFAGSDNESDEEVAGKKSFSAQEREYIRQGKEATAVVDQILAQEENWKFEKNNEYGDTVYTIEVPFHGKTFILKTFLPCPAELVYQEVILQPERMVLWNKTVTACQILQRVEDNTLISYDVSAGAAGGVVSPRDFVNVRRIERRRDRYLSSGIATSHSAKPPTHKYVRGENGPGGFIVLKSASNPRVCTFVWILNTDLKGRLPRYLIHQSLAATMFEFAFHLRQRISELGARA
# B2: Vesicle-associated membrane protein-associated protein A (Homo sapiens), Q9P0L0 (parent)
# chain: B1 chain
# partner: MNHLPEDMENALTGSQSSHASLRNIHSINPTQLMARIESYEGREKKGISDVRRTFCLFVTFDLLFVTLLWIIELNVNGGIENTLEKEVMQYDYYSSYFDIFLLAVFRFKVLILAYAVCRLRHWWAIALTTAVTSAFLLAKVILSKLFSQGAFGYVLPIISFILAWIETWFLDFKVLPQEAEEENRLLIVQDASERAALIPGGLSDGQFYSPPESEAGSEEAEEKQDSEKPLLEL
# Variants of: B1
# Settings: with STARD3, Q14849-1
row,Variant,effect of a mutation on the interaction
1,K94D;M96D,decreasing interaction strength

# Variants of: B2
# Settings: with STARD3NL
row,Variant,effect of a mutation on the interaction
1,K94D;M96D,decreasing interaction strength
